Measurements published in patent publication US11959098B2, “Methods and culture media for culturing pluripotent stem cells” (Technion Research & Development Foundation Limited, priority 2010, dated 2024).
“Also recorded” adds a separate entry of the source.

Columns and labels:
[1] = test system: C2 cell line (iPS cell line derived from foreskin fibroblast); assay: Endodermal differentiation of pluripotent stem cells cultured in suspension; format: cell-based, human
Protocol: Differentiation into endodermal cells—Cells cultured in suspension with cell clumps from C2 cell line (iPS cell line derived from foreskin fibroblast) were cultured in suspension for at least 10 passages. Then the factors were removed from the culture medium and the cells were exposed to 10 ng/ml Activin for 48 hours, in medium containing cAMP increasers such as foreskulin, 8-bromocAMP, GABA, IBMX and DBC. Ten days later the cells were analyzed for endodermal markers. […] As shown in FIGS. 10A-10B the differentiated cells express PDX1, a transcription factor indicating differentiation into endoderm lineage, mainly into β-cells.
C2 cells were cultured for more than 10 passages as single cells in suspension in the pCM100F culture medium. For endoderm differentiation, the bFGF and the IL6RIL6 chimera were removed from the culture medium and activin A at concentration of 10 ng/ml was added for 48 hours in a suspension culture. 10 days after exposure to activin A, the cells were plated on Matrigel™ or HFF (human foreskin fibroblast) matrix, or were cultured in a 3-dimensional culture system (in suspension) and were stained to PDX1.

[2] = test system: hESCs cultured in suspension; assay: Neural differentiation of pluripotent stem cells cultured in suspension; format: cell-based, human; details: hESC single cells; retinoic acid (10^−3 M) or Noggin (10 ngr/ml); three weeks after induction
Protocol: Neural differentiation—To induce neural differentiation single cells cultured in suspension were transferred to a medium without bFGF and the IL6RIL6 chimera. Either retinoic acid (10^−3 M) or Noggin (10 ngr/ml) were added for three to seven days. Three weeks after differentiation induction, the cells were plated for staining with fibronectin. The cells were stained for O4 (oligodendrocytes marker), GFAP (Glial fibrillary acidic protein), nestin and β-tubulin.
Differentiation into neuronal cells—Cells from the four tested cell lines (I3, I4, I6 and H9.2) were cultured in suspension with cell clump for at least 25 passages. Then, the factors were removed from the culture medium and 5×10^−5 M Retinoic acid was added for 21 Days. The cells were then transferred to fibronectin coated plates and cultured for additional 5 days before harvesting the cells for analysis.
Human ESCs which are cultured in suspension as single cells are capable of differentiating into the neuronal cell linage—To induce neural differentiation, hESCs which are cultured in suspension as single cells were transferred to a neuronal differentiating medium (without bFGF and the IL6RIL6 chimera) which included either retinoic acid (10^−3 M) or Noggin (10 ngr/ml) as described under “General Materials and Experimental Methods” hereinabove. […]

[3] = C2 clumps, 10 ng/ml for 48 hours with cAMP increasers, ten days later

Molecule | PDX1 expression (immunofluorescence) [1, 3] | Sox17 expression (quantitative RT-PCR) versus non-treated controls [1, 3] | SOX 17 gene expression (real time PCR) ([1]; C2 single cells, 10 ng/ml for 48 hours in suspension) | PDX1 expression (immunostaining) ([1]; C2 single cells, 10 ng/ml for 48 hours, 10 days after exposure) | differentiation into neuronal progenitor cells (GFAP, O4, β-Tubulin, Nestin staining) [2]
activin A: activin A at concentration of 10 ng/ml added for endoderm differentiation (protein, UniProt P08476 311-426, looked up, Inhibin beta A chain) Inhibin beta A chain: GLECDGKVNICCKKQFFVSFKDIGWNDWIIAPSGYHANYCEGECPSHIAGTSGSSLSFHSTVINHYRMRGHSPFANLKSCCVPTKLRPMSMLYYDDGQNIIKKDIQNMIVEECGCS | express PDX1 | significant increase in Sox17 expression | an increase could be observed during differentiation from day 2 to 10 | all cells which are stained by DAPI (nuclear staining) are also stained with PDX1; also recorded: expression of PDX1 in the cells | –
Noggin: Noggin (10 ngr/ml) added to induce neural differentiation (protein, UniProt Q13253 28-232, looked up) Noggin: QHYLHIRPAPSDNLPLVDLIEHPDPIFDPKEKDLNETLLRSLLGGHYDPGFMATSPPEDRPGGGGGAAGGAEDLAELDQLLRQRPSGAMPSEIKGLEFSEGLAQGKKQRLSKKLRRKLQMWLWSQTFCPVLYAWNDLGSRFWPRYVKVGSCFSKRSCSVPEGMVCKPSKSVHLTVLRWRCQRRGGQRCGWIPIQYPIISECKCSC | – | – | – | – | differentiated into neuronal progenitor cells
